Data on 66 substances can be found in the array DNA melting data of Ke et al..

This data set is described as follows: melting temperature; melt of duplexes. As to conditions: sodium 0.0675 M; strand 1 µM.
On to “CGACGTGCTCTATGTGCTG+CAGCACATCGTGCACGTCG ((((((((.(.((((((((+)))))))).).))))))))”, for which the Tm – broadly, the temperature at the midpoint of the melting transition – is 45.2 °C. In the case of “CGACGTGCGCAATGTGCTG+CAGCACATAATGCACGTCG ((((((((...((((((((+))))))))...))))))))” it was 50.5 °C; in that of “CGACGTGCCGAATGTGCTG+CAGCACATGTGGCACGTCG (((((((((..((((((((+))))))))..)))))))))”, 57.2 °C; in that of “CGACGTGCGACATGTGCTG+CAGCACATATTGCACGTCG ((((((((.(.((((((((+)))))))).).))))))))”, 51.5 °C. Turning to “CGACGTGCAGTATGTGCTG+CAGCACATTGGGCACGTCG ((((((((...((((((((+))))))))...))))))))”, the Tm was 48.8 °C. In the case of “CGACGTGCACTATGTGCTG+CAGCACATACAGCACGTCG ((((((((..(((((((((+)))))))))..))))))))” it was 45.4 °C; in that of “CGACGTGCTGTATGTGCTG+CAGCACATACTGCACGTCG ((((((((.((((((((((+)))))))))).))))))))”, 57.8 °C.

Take “CGACGTGCAGTATGTGCTG+CAGCACATGATGCACGTCG (((((((((..((((((((+))))))))..)))))))))”: the Tm was found to be 55 °C.

Regarding “CGACGTGCGTCATGTGCTG+CAGCACATGCCGCACGTCG (((((((((.(((((((((+))))))))).)))))))))”, the Tm worked out at 59.9 °C.

Consider “CGACGTGCTATATGTGCTG+CAGCACATTGTGCACGTCG ((((((((...((((((((+))))))))...))))))))”, for which the Tm is 47.2 °C. For “CGACGTGCCACATGTGCTG+CAGCACATTTTGCACGTCG ((((((((.(.((((((((+)))))))).).))))))))”, the midpoint of thermal melting (Tm) turned out to be 48 °C.

As for “CGACGTGCCATATGTGCTG+CAGCACATGTCGCACGTCG ((((((((.(.((((((((+)))))))).).))))))))”, the Tm came out at 50.5 °C. The result for “CGACGTGCTAAATGTGCTG+CAGCACATTTCGCACGTCG ((((((((.((((((((((+)))))))))).))))))))” reads 55.3 °C; that for “CGACGTGCAACATGTGCTG+CAGCACATGAAGCACGTCG ((((((((..(((((((((+)))))))))..))))))))”, 54.3 °C; that for “CGACGTGCGTTATGTGCTG+CAGCACATGGTGCACGTCG ((((((((...((((((((+))))))))...))))))))”, 48.3 °C. In the case of “CGACGTGCATGATGTGCTG+CAGCACATCTGGCACGTCG ((((((((..(((((((((+)))))))))..))))))))” it was 56.1 °C; in that of “CGACGTGCAGCATGTGCTG+CAGCACATGTGGCACGTCG ((((((((..(((((((((+)))))))))..))))))))”, 55.5 °C. The result for “CGACGTGCCAGATGTGCTG+CAGCACATATTGCACGTCG ((((((((.(.((((((((+)))))))).).))))))))” reads 50.1 °C. As for “CGACGTGCTATATGTGCTG+CAGCACATCTCGCACGTCG ((((((((.(.((((((((+)))))))).).))))))))”, the Tm was 48.3 °C. “CGACGTGCCCTATGTGCTG+CAGCACATAGGGCACGTCG (((((((((((((((((((+)))))))))))))))))))”: the Tm is 64.4 °C. The result for “CGACGTGCTTGATGTGCTG+CAGCACATAATGCACGTCG ((((((((.(.((((((((+)))))))).).))))))))” reads 52.1 °C; that for “CGACGTGCACAATGTGCTG+CAGCACATAGTGCACGTCG ((((((((((.((((((((+)))))))).))))))))))”, 53.5 °C; that for “CGACGTGCTGAATGTGCTG+CAGCACATCATGCACGTCG ((((((((...((((((((+))))))))...))))))))”, 53.1 °C.

On to “CGACGTGCTCCATGTGCTG+CAGCACATACTGCACGTCG ((((((((...((((((((+))))))))...))))))))”, for which the Tm was found to be 47.4 °C. The result for “CGACGTGCGAGATGTGCTG+CAGCACATGTCGCACGTCG ((((((((((.((((((((+)))))))).))))))))))” reads 60.6 °C. The result for “CGACGTGCCGAATGTGCTG+CAGCACATAGGGCACGTCG (((((((((..((((((((+))))))))..)))))))))” reads 54.4 °C; that for “CGACGTGCCATATGTGCTG+CAGCACATTGGGCACGTCG (((((((((..((((((((+))))))))..)))))))))”, 55.6 °C; that for “CGACGTGCTTGATGTGCTG+CAGCACATCATGCACGTCG ((((((((.((((((((((+)))))))))).))))))))”, 59.5 °C. Take “CGACGTGCACAATGTGCTG+CAGCACATGGAGCACGTCG ((((((((.(.((((((((+)))))))).).))))))))”: the Tm turned out to be 52.5 °C. The result for “CGACGTGCACGATGTGCTG+CAGCACATCCGGCACGTCG ((((((((..(((((((((+)))))))))..))))))))” reads 52.4 °C; that for “CGACGTGCGACATGTGCTG+CAGCACATACGGCACGTCG ((((((((...((((((((+))))))))...))))))))”, 48.8 °C.

For “CGACGTGCTCCATGTGCTG+CAGCACATGTCGCACGTCG ((((((((..(((((((((+)))))))))..))))))))”, the Tm was determined as 52.1 °C. “CGACGTGCGCTATGTGCTG+CAGCACATACAGCACGTCG ((((((((..(((((((((+)))))))))..))))))))”: the Tm turned out to be 52.1 °C. In the case of “CGACGTGCATTATGTGCTG+CAGCACATCTTGCACGTCG (((((((((..((((((((+))))))))..)))))))))” it was 51.1 °C.

Take “CGACGTGCCCGATGTGCTG+CAGCACATCCCGCACGTCG ((((((((..(((((((((+)))))))))..))))))))”: the Tm was 51.9 °C. With “CGACGTGCAGGATGTGCTG+CAGCACATCCCGCACGTCG ((((((((.((((((((((+)))))))))).))))))))”, the Tm came to 59 °C. Turning to “CGACGTGCCCGATGTGCTG+CAGCACATCCAGCACGTCG ((((((((..(((((((((+)))))))))..))))))))”, the Tm amounted to 52.7 °C. In the case of “CGACGTGCCCAATGTGCTG+CAGCACATATCGCACGTCG ((((((((...((((((((+))))))))...))))))))” it was 47.1 °C; in that of “CGACGTGCTATATGTGCTG+CAGCACATAACGCACGTCG ((((((((..(((((((((+)))))))))..))))))))”, 50.8 °C. In the case of “CGACGTGCGTCATGTGCTG+CAGCACATTGCGCACGTCG (((((((((..((((((((+))))))))..)))))))))” it was 54.7 °C; in that of “CGACGTGCCACATGTGCTG+CAGCACATCAAGCACGTCG ((((((((...((((((((+))))))))...))))))))”, 47.7 °C; in that of “CGACGTGCACTATGTGCTG+CAGCACATCACGCACGTCG ((((((((...((((((((+))))))))...))))))))”, 43.3 °C. The result for “CGACGTGCCCGATGTGCTG+CAGCACATAGCGCACGTCG ((((((((.(.((((((((+)))))))).).))))))))” reads 50.8 °C. With “CGACGTGCGAAATGTGCTG+CAGCACATTGCGCACGTCG (((((((((.(((((((((+))))))))).)))))))))”, the Tm is 60.2 °C. In the case of “CGACGTGCAGCATGTGCTG+CAGCACATGTTGCACGTCG (((((((((.(((((((((+))))))))).)))))))))” it was 58.7 °C; in that of “CGACGTGCTGAATGTGCTG+CAGCACATAGAGCACGTCG (((((((((..((((((((+))))))))..)))))))))”, 52.2 °C; in that of “CGACGTGCCCCATGTGCTG+CAGCACATACCGCACGTCG ((((((((...((((((((+))))))))...))))))))”, 45.8 °C. The result for “CGACGTGCTTAATGTGCTG+CAGCACATCCTGCACGTCG ((((((((...((((((((+))))))))...))))))))” reads 48.4 °C; that for “CGACGTGCCCCATGTGCTG+CAGCACATAGAGCACGTCG ((((((((.(.((((((((+)))))))).).))))))))”, 48.7 °C.

As for “CGACGTGCGTAATGTGCTG+CAGCACATTCAGCACGTCG ((((((((..(((((((((+)))))))))..))))))))”, the Tm was determined as 54.7 °C. The result for “CGACGTGCTGGATGTGCTG+CAGCACATCGAGCACGTCG (((((((((.(((((((((+))))))))).)))))))))” reads 59.3 °C; that for “CGACGTGCGAAATGTGCTG+CAGCACATTGTGCACGTCG ((((((((..(((((((((+)))))))))..))))))))”, 52.4 °C; that for “CGACGTGCGAGATGTGCTG+CAGCACATGCCGCACGTCG (((((((((..((((((((+))))))))..)))))))))”, 55.4 °C. For the substance “CGACGTGCGCAATGTGCTG+CAGCACATCTGGCACGTCG ((((((((...((((((((+))))))))...))))))))”, the Tm was 49.8 °C. In the case of “CGACGTGCGGCATGTGCTG+CAGCACATTCTGCACGTCG ((((((((.(.((((((((+)))))))).).))))))))” it was 53.1 °C; in that of “CGACGTGCTTTATGTGCTG+CAGCACATGGCGCACGTCG ((((((((...((((((((+))))))))...))))))))”, 47.2 °C; in that of “CGACGTGCCCCATGTGCTG+CAGCACATCGAGCACGTCG ((((((((.(.((((((((+)))))))).).))))))))”, 48.7 °C. Regarding “CGACGTGCATAATGTGCTG+CAGCACATCTCGCACGTCG ((((((((...((((((((+))))))))...))))))))”, the Tm was 47.6 °C. For the substance “CGACGTGCAGAATGTGCTG+CAGCACATAAAGCACGTCG ((((((((...((((((((+))))))))...))))))))”, the midpoint of thermal melting (Tm) was determined as 50.5 °C. The result for “CGACGTGCGTGATGTGCTG+CAGCACATGCCGCACGTCG (((((((((..((((((((+))))))))..)))))))))” reads 54.7 °C; that for “CGACGTGCTTCATGTGCTG+CAGCACATAACGCACGTCG ((((((((.(.((((((((+)))))))).).))))))))”, 49.3 °C. In the case of “CGACGTGCTAAATGTGCTG+CAGCACATGAGGCACGTCG ((((((((...((((((((+))))))))...))))))))”, the Tm worked out at 53.4 °C. In the case of “CGACGTGCGGAATGTGCTG+CAGCACATTGGGCACGTCG ((((((((..(((((((((+)))))))))..))))))))”, the melting temperature (Tm) was 53.5 °C.

As for “CGACGTGCCGCATGTGCTG+CAGCACATCATGCACGTCG ((((((((...((((((((+))))))))...))))))))”, the Tm worked out at 48.6 °C.

In the case of “CGACGTGCAAAATGTGCTG+CAGCACATGGCGCACGTCG ((((((((...((((((((+))))))))...))))))))”, the Tm came to 54 °C. The result for “CGACGTGCCGCATGTGCTG+CAGCACATGCGGCACGTCG (((((((((((((((((((+)))))))))))))))))))” reads 69.1 °C.
